Experiments:
AncSZ = assay: phosphorylation enrichment, bacterial display (enrichment ratio); higher = better substrate or ligand; peptides without Tyr show the background
EPHB1 = EPHB1 (UniProt P54762); assay: as above
EPHB2 = EPHB2 (UniProt P29323); assay: as above
FGFR1 = FGFR1 (UniProt P11362); assay: as above
FGFR3 = FGFR3 (UniProt P22607); assay: as above
Fer (mouse) = assay: as above
Fes = Fes (UniProt P07332); assay: as above
Fyn = Fyn (UniProt P06241); assay: as above
Hck = Hck (UniProt P08631); assay: as above
Hck, sequence (P08631 whole entry, looked up): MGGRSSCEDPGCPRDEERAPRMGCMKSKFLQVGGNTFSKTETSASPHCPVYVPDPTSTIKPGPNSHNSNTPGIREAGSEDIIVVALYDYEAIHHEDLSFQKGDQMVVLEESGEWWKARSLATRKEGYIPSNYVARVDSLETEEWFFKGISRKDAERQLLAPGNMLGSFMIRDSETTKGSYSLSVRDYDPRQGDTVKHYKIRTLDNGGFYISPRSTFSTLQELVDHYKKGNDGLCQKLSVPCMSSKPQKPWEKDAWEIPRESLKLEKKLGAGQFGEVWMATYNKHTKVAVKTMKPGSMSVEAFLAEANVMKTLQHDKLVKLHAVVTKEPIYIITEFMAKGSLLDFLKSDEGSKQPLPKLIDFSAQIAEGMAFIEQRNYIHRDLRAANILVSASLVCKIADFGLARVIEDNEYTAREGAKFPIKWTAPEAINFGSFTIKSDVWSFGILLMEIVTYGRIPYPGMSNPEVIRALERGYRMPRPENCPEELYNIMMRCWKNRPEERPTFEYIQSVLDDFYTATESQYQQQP

Jak2 = Jak2 (UniProt O60674); assay: as above
MERTK = MERTK (UniProt Q12866); assay: as above
MERTK, sequence (Q12866 whole entry, looked up): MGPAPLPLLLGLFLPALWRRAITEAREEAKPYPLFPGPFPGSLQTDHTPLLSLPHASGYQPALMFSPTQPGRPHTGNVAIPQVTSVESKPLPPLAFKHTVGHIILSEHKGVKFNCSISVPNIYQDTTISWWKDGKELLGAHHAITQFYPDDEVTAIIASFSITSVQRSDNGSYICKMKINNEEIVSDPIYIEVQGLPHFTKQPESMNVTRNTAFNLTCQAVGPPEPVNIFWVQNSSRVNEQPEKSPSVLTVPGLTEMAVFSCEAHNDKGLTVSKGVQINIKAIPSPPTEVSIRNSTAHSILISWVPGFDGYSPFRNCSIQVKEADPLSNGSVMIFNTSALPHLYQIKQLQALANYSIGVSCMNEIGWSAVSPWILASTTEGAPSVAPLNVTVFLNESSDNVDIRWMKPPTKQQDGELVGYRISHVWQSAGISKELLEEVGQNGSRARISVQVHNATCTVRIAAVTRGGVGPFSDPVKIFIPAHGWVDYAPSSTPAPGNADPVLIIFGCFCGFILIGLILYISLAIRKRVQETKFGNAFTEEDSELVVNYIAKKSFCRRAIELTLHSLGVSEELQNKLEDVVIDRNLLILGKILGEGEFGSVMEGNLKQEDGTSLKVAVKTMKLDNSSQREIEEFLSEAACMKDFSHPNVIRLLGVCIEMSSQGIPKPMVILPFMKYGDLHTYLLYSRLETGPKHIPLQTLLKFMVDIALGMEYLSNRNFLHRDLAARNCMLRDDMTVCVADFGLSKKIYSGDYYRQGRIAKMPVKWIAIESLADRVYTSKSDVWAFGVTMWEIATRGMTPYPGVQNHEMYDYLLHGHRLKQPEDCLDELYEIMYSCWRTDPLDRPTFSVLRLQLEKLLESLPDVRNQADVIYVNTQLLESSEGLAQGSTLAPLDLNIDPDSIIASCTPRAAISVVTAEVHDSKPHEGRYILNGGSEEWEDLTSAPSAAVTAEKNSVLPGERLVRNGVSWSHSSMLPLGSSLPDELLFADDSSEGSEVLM

c-Abl (mouse) = assay: as above
c-Src = assay: as above
Grb2 SH2 = Grb2 SH2 (UniProt P62993); assay: SH2 binding enrichment of the phosphorylated peptide, bacterial display (enrichment ratio); higher = better substrate or ligand; peptides without Tyr show the background
SHP2-C SH2 = assay: as above
c-Src SH2 = assay: as above
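Throughout, for SH2 binding enrichment of the phosphorylated peptide, bacterial display: peptide library displayed on the E. coli surface as eCPX fusions, selected cells deep-sequenced, score is each peptide's frequency after selection divided by its frequency in the input.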
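Throughout, for phosphorylation enrichment, bacterial display: 11-residue human phosphosite peptides and single-mutation variants displayed on the E. coli surface, counted by deep sequencing, each peptide's frequency after selection divided by its frequency in the unselected input library; frequency after pTyr selection over input frequency; kinase dosed for 20-30% of maximal phosphorylation in three min.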

EPHB2, sequence (P29323 whole entry, looked up): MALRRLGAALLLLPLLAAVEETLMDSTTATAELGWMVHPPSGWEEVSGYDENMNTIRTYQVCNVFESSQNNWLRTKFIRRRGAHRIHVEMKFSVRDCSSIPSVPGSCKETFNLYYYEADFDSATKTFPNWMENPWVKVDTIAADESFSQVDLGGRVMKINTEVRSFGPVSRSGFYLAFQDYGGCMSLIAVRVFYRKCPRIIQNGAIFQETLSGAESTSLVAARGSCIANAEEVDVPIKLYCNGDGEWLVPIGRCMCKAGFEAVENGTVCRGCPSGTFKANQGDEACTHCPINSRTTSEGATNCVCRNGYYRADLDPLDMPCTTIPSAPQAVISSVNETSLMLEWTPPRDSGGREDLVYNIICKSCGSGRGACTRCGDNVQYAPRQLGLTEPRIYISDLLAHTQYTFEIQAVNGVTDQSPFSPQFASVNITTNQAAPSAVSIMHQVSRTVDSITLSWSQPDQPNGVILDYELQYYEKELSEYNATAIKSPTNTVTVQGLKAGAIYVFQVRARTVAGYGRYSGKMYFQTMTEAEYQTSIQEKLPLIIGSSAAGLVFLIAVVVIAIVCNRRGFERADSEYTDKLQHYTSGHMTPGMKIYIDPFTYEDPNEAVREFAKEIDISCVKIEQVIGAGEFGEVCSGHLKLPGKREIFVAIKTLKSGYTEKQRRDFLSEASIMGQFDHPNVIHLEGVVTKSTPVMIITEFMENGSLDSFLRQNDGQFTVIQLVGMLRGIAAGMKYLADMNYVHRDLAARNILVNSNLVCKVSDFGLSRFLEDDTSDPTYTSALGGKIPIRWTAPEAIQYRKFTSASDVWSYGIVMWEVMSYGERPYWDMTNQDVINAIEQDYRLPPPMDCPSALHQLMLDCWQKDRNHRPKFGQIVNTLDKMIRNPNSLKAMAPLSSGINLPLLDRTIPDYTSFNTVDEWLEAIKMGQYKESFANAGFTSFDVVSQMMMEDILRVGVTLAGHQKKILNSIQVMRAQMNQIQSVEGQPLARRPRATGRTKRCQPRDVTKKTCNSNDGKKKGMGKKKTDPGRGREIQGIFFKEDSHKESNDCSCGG
FGFR1, sequence (P11362 whole entry, looked up): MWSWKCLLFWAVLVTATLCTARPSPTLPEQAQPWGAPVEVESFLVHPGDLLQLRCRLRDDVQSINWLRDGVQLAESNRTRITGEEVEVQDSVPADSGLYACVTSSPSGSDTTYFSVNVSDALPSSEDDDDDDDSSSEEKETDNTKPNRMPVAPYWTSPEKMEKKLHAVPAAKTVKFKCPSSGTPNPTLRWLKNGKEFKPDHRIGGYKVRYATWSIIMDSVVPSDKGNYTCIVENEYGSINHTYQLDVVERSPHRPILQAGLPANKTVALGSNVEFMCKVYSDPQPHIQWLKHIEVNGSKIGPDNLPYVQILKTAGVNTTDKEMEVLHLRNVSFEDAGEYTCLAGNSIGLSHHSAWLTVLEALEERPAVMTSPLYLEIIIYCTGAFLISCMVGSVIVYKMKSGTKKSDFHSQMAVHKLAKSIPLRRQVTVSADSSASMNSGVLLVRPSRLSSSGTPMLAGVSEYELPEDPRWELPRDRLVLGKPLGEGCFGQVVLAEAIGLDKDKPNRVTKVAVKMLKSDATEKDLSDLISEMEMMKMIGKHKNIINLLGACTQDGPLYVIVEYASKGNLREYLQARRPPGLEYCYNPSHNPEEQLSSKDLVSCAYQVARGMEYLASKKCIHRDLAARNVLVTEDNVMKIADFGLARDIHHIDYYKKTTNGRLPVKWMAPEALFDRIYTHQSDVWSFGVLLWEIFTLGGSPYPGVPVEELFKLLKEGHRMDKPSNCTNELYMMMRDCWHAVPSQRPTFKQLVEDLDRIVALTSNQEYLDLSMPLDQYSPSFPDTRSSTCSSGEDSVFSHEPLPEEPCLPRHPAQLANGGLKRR
Fes, sequence (P07332 whole entry, looked up): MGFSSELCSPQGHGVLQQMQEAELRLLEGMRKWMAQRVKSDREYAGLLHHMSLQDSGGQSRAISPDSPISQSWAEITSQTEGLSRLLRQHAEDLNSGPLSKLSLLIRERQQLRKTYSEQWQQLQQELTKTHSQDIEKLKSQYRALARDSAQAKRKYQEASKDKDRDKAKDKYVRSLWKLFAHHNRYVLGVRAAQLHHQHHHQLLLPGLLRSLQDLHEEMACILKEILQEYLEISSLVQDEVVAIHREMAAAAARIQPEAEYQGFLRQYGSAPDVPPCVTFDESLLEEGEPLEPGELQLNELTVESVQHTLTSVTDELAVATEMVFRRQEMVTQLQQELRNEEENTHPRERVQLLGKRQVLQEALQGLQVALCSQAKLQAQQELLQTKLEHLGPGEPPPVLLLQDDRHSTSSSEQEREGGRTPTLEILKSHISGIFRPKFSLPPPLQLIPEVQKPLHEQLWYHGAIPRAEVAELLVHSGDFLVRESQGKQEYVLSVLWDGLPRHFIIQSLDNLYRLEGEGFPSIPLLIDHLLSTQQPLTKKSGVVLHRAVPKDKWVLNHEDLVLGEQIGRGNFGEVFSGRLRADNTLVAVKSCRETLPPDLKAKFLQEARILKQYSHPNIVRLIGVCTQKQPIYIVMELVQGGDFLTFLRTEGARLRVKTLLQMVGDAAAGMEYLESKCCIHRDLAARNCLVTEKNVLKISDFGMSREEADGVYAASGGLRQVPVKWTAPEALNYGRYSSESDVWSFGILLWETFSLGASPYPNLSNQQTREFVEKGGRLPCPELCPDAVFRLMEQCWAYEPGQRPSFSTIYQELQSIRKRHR
FGFR3, sequence (P22607 whole entry, looked up): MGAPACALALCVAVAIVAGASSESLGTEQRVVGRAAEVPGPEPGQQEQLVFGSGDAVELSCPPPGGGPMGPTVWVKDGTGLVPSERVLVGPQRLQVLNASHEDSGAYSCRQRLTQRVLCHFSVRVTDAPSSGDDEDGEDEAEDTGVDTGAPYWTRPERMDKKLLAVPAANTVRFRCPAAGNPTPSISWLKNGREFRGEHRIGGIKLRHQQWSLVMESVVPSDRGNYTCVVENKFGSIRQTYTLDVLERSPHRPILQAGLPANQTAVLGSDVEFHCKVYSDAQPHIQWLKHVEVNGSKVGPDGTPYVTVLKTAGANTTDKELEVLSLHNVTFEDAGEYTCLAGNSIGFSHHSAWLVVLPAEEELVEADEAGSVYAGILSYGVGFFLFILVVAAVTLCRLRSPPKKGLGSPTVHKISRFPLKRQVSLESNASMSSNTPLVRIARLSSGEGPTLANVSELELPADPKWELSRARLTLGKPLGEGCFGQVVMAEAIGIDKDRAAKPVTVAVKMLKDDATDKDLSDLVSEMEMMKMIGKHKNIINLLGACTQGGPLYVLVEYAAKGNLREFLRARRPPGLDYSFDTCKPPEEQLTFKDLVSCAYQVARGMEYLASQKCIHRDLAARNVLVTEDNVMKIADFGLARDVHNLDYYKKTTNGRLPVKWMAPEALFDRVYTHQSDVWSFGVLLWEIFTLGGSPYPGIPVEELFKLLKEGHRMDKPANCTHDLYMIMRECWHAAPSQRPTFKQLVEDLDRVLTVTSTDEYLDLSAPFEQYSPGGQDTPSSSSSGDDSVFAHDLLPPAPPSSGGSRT

NFSKMYCNPDA [KNL1_Y489_A486S_YF] was tested. Which phosphorylation enrichment (AncSZ) did it give?
The phosphorylation enrichment was 0.94.

What about the phosphorylation enrichment (EPHB1) of the same sequence?
Its phosphorylation enrichment is 0.562.

What about the phosphorylation enrichment (EPHB2) of the same sequence?
Its phosphorylation enrichment is 0.613.

What about the phosphorylation enrichment (FGFR1) of the same sequence?
The phosphorylation enrichment was 0.46.

And the phosphorylation enrichment (FGFR3)?
The phosphorylation enrichment was 0.802.

What about the phosphorylation enrichment (Fer (mouse)) of the same sequence?
Its phosphorylation enrichment is 0.563.

What about the phosphorylation enrichment (Fes) of the same sequence?
Its phosphorylation enrichment is 0.924.

What about the phosphorylation enrichment (Fyn) of the same sequence?
The phosphorylation enrichment was 0.486.

What about the phosphorylation enrichment (Hck) of the same sequence?
The phosphorylation enrichment was 0.488.

What about the phosphorylation enrichment (Jak2) of the same sequence?
Its phosphorylation enrichment is 0.894.

What about the phosphorylation enrichment (MERTK) of the same sequence?
The phosphorylation enrichment was 0.524.

And the phosphorylation enrichment (c-Abl (mouse))?
Its phosphorylation enrichment is 0.699.

What about the phosphorylation enrichment (c-Src) of the same sequence?
Its phosphorylation enrichment is 0.426.

What about the SH2 binding enrichment (Grb2 SH2) of the same sequence?
The SH2 binding enrichment was 0.751.

And the SH2 binding enrichment (SHP2-C SH2)?
Its SH2 binding enrichment is 0.619.

And the SH2 binding enrichment (c-Src SH2)?
The SH2 binding enrichment was 2.54.

How did the phosphorylation enrichment (AncSZ) turn out when KKEGPYDVVVL [PARK7_Y67] was run?
Its phosphorylation enrichment is 0.675.

And the phosphorylation enrichment (EPHB1)?
Its phosphorylation enrichment is 0.492.

And the phosphorylation enrichment (EPHB2)?
The phosphorylation enrichment was 0.49.

And the phosphorylation enrichment (FGFR1)?
The phosphorylation enrichment was 0.494.

What about the phosphorylation enrichment (FGFR3) of the same sequence?
The phosphorylation enrichment was 0.546.

And the phosphorylation enrichment (Fer (mouse))?
The phosphorylation enrichment was 6.5.

What about the phosphorylation enrichment (Fes) of the same sequence?
Its phosphorylation enrichment is 0.776.

What about the phosphorylation enrichment (Fyn) of the same sequence?
Its phosphorylation enrichment is 1.01.

And the phosphorylation enrichment (Hck)?
Its phosphorylation enrichment is 0.57.

And the phosphorylation enrichment (Jak2)?
The phosphorylation enrichment was 0.691.

What about the phosphorylation enrichment (MERTK) of the same sequence?
The phosphorylation enrichment was 0.7.

What about the phosphorylation enrichment (c-Abl (mouse)) of the same sequence?
The phosphorylation enrichment was 0.631.

What about the phosphorylation enrichment (c-Src) of the same sequence?
The phosphorylation enrichment was 1.33.

What about the SH2 binding enrichment (Grb2 SH2) of the same sequence?
The SH2 binding enrichment was 0.801.

What about the SH2 binding enrichment (SHP2-C SH2) of the same sequence?
The SH2 binding enrichment was 0.629.

What about the SH2 binding enrichment (c-Src SH2) of the same sequence?
The SH2 binding enrichment was 0.827.

What does the source list for DLLNSYTENEG [HSPA4L_Y600_I601T]?
phosphorylation enrichment (AncSZ): 1.17; phosphorylation enrichment (EPHB1): 0.482; phosphorylation enrichment (EPHB2): 0.618; phosphorylation enrichment (FGFR1): 0.578; phosphorylation enrichment (FGFR3): 0.759; phosphorylation enrichment (Fer (mouse)): 0.446; phosphorylation enrichment (Fes): 1.24; phosphorylation enrichment (Fyn): 0.614; phosphorylation enrichment (Hck): 0.603; phosphorylation enrichment (Jak2): 1.16; phosphorylation enrichment (MERTK): 0.492; phosphorylation enrichment (c-Abl (mouse)): 0.623; phosphorylation enrichment (c-Src): 0.616; SH2 binding enrichment (Grb2 SH2): 0.7; SH2 binding enrichment (SHP2-C SH2): 0.882; SH2 binding enrichment (c-Src SH2): 0.457

Which results are given for GMAHNYRNSSQ [AASS_Y188]?
phosphorylation enrichment (AncSZ): 0.589; phosphorylation enrichment (EPHB1): 0.255; phosphorylation enrichment (EPHB2): 0.47; phosphorylation enrichment (FGFR1): 0.371; phosphorylation enrichment (FGFR3): 0.431; phosphorylation enrichment (Fer (mouse)): 0.384; phosphorylation enrichment (Fes): 0.45; phosphorylation enrichment (Fyn): 0.446; phosphorylation enrichment (Hck): 0.414; phosphorylation enrichment (Jak2): 0.434; phosphorylation enrichment (MERTK): 0.418; phosphorylation enrichment (c-Abl (mouse)): 0.313; phosphorylation enrichment (c-Src): 0.386; SH2 binding enrichment (Grb2 SH2): 0.702; SH2 binding enrichment (SHP2-C SH2): 0.57; SH2 binding enrichment (c-Src SH2): 0.482

For FAELMYTGFWH [ASS1_Y322_V321M], which phosphorylation enrichment (AncSZ) is on record?
Its phosphorylation enrichment is 2.17.

What about the phosphorylation enrichment (EPHB1) of the same sequence?
Its phosphorylation enrichment is 3.52.

And the phosphorylation enrichment (EPHB2)?
The phosphorylation enrichment was 4.76.

What about the phosphorylation enrichment (FGFR1) of the same sequence?
Its phosphorylation enrichment is 2.32.

And the phosphorylation enrichment (FGFR3)?
Its phosphorylation enrichment is 2.02.

And the phosphorylation enrichment (Fer (mouse))?
Its phosphorylation enrichment is 5.42.

And the phosphorylation enrichment (Fes)?
The phosphorylation enrichment was 1.67.

And the phosphorylation enrichment (Fyn)?
The phosphorylation enrichment was 6.85.

And the phosphorylation enrichment (Hck)?
The phosphorylation enrichment was 4.7.

And the phosphorylation enrichment (Jak2)?
The phosphorylation enrichment was 2.02.

What about the phosphorylation enrichment (MERTK) of the same sequence?
The phosphorylation enrichment was 7.12.

And the phosphorylation enrichment (c-Abl (mouse))?
Its phosphorylation enrichment is 3.16.

And the phosphorylation enrichment (c-Src)?
The phosphorylation enrichment was 6.43.

What about the SH2 binding enrichment (Grb2 SH2) of the same sequence?
Its SH2 binding enrichment is 0.918.

And the SH2 binding enrichment (SHP2-C SH2)?
The SH2 binding enrichment was 0.816.

What about the SH2 binding enrichment (c-Src SH2) of the same sequence?
The SH2 binding enrichment was 0.538.

How did the phosphorylation enrichment (AncSZ) turn out when GETEQYVGGGG [FAT4_Y4980_A4977T] was run?
Its phosphorylation enrichment is 0.889.

What about the phosphorylation enrichment (EPHB1) of the same sequence?
The phosphorylation enrichment was 0.526.

And the phosphorylation enrichment (EPHB2)?
The phosphorylation enrichment was 0.475.

What about the phosphorylation enrichment (FGFR1) of the same sequence?
Its phosphorylation enrichment is 0.437.

What about the phosphorylation enrichment (FGFR3) of the same sequence?
Its phosphorylation enrichment is 0.599.

What about the phosphorylation enrichment (Fer (mouse)) of the same sequence?
Its phosphorylation enrichment is 0.436.

What about the phosphorylation enrichment (Fes) of the same sequence?
Its phosphorylation enrichment is 0.922.

And the phosphorylation enrichment (Fyn)?
The phosphorylation enrichment was 0.475.

And the phosphorylation enrichment (Hck)?
The phosphorylation enrichment was 0.467.

And the phosphorylation enrichment (Jak2)?
The phosphorylation enrichment was 0.66.

What about the phosphorylation enrichment (MERTK) of the same sequence?
The phosphorylation enrichment was 0.414.

And the phosphorylation enrichment (c-Abl (mouse))?
The phosphorylation enrichment was 0.624.

And the phosphorylation enrichment (c-Src)?
Its phosphorylation enrichment is 0.419.

What about the SH2 binding enrichment (Grb2 SH2) of the same sequence?
Its SH2 binding enrichment is 0.798.

What about the SH2 binding enrichment (SHP2-C SH2) of the same sequence?
Its SH2 binding enrichment is 0.553.

And the SH2 binding enrichment (c-Src SH2)?
Its SH2 binding enrichment is 0.506.

For SVVVTYEPPEV [TP53_Y220_P219T], which phosphorylation enrichment (AncSZ) is on record?
The phosphorylation enrichment was 1.57.

And the phosphorylation enrichment (EPHB1)?
The phosphorylation enrichment was 1.06.

And the phosphorylation enrichment (EPHB2)?
Its phosphorylation enrichment is 1.61.

What about the phosphorylation enrichment (FGFR1) of the same sequence?
The phosphorylation enrichment was 0.493.

What about the phosphorylation enrichment (FGFR3) of the same sequence?
Its phosphorylation enrichment is 0.708.

What about the phosphorylation enrichment (Fer (mouse)) of the same sequence?
Its phosphorylation enrichment is 0.752.

What about the phosphorylation enrichment (Fes) of the same sequence?
Its phosphorylation enrichment is 1.32.

And the phosphorylation enrichment (Fyn)?
Its phosphorylation enrichment is 0.516.

And the phosphorylation enrichment (Hck)?
The phosphorylation enrichment was 0.697.

What about the phosphorylation enrichment (Jak2) of the same sequence?
Its phosphorylation enrichment is 0.969.

And the phosphorylation enrichment (MERTK)?
Its phosphorylation enrichment is 0.779.

What about the phosphorylation enrichment (c-Abl (mouse)) of the same sequence?
Its phosphorylation enrichment is 0.961.

And the phosphorylation enrichment (c-Src)?
The phosphorylation enrichment was 0.623.

And the SH2 binding enrichment (Grb2 SH2)?
Its SH2 binding enrichment is 0.722.

And the SH2 binding enrichment (SHP2-C SH2)?
The SH2 binding enrichment was 0.761.

And the SH2 binding enrichment (c-Src SH2)?
Its SH2 binding enrichment is 0.729.

How did the phosphorylation enrichment (AncSZ) turn out when RREWFYEVIIV [BACE1_Y260_YF] was run?
The phosphorylation enrichment was 1.53.

And the phosphorylation enrichment (EPHB1)?
The phosphorylation enrichment was 0.928.

And the phosphorylation enrichment (EPHB2)?
Its phosphorylation enrichment is 0.372.

What about the phosphorylation enrichment (FGFR1) of the same sequence?
The phosphorylation enrichment was 0.605.

What about the phosphorylation enrichment (FGFR3) of the same sequence?
The phosphorylation enrichment was 0.505.

What about the phosphorylation enrichment (Fer (mouse)) of the same sequence?
Its phosphorylation enrichment is 1.89.

What about the phosphorylation enrichment (Fes) of the same sequence?
Its phosphorylation enrichment is 4.8.

And the phosphorylation enrichment (Fyn)?
Its phosphorylation enrichment is 0.649.

What about the phosphorylation enrichment (Hck) of the same sequence?
Its phosphorylation enrichment is 0.561.

What about the phosphorylation enrichment (Jak2) of the same sequence?
Its phosphorylation enrichment is 0.882.

What about the phosphorylation enrichment (MERTK) of the same sequence?
The phosphorylation enrichment was 2.28.

And the phosphorylation enrichment (c-Abl (mouse))?
The phosphorylation enrichment was 0.766.

And the phosphorylation enrichment (c-Src)?
Its phosphorylation enrichment is 0.515.

And the SH2 binding enrichment (Grb2 SH2)?
Its SH2 binding enrichment is 0.927.

What about the SH2 binding enrichment (SHP2-C SH2) of the same sequence?
The SH2 binding enrichment was 0.741.

What about the SH2 binding enrichment (c-Src SH2) of the same sequence?
The SH2 binding enrichment was 0.526.

— the supplement of paper PMC10065799, “High-throughput profiling of sequence recognition by tyrosine kinases and SH2 domains using bacterial peptide display” (eLife, 2023)
